The target in the assay is CD19 on CD19-positive tumor cells (Nalm6, Raji) (human (endogenous in Nalm6 and Raji)) (UniProt P15391).
Chain of UniProt P15391 (P15391 20-556): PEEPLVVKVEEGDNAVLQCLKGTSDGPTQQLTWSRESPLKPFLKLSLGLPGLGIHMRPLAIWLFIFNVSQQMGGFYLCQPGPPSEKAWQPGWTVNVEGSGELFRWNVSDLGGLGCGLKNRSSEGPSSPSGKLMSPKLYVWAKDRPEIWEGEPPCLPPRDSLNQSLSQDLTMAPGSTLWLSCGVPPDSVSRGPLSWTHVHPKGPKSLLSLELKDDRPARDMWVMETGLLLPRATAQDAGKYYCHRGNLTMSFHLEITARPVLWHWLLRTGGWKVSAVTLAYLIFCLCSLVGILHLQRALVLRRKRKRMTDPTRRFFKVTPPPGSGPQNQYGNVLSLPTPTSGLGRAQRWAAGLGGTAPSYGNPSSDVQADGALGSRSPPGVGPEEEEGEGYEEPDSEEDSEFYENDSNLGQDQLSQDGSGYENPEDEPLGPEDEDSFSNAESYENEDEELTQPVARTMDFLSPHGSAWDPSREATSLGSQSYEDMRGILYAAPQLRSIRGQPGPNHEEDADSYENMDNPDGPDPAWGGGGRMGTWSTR

Substance “γ-TRuC (CD19-specific T cell receptor fusion construct: FMC63 scFv fused to full-length human CD3γ) (from UniProt P09693 23-182)” came in with a conversion of transduced primary T cells into a CD69+/CD25+ phenotype after overnight co-culture with Nalm6 cells of 50%.

The values above are taken from paper PMC6504948.
